Laboratory results as given in article PMC8567202, “Phosphoinositide-binding activity of Smad2 is essential for its function in TGF-β signaling” (The Journal of Biological Chemistry, 2021).
Changes are numbered by the printed parent chain. In names and notes the source's numbering stands.

B1: Smad2-W422A: W422A mutant of full-length Smad2; specific PI(4,5)P2 binding-compromised (protein)
chain: MSSILPFTPPVVKRLLGWKKSAGGSGGAGGGEQNGQEEKWCEKAVKSLVKKLKKTGRLDELEKAITTQNCNTKCVTIPSTCSEIWGLSTANTVDQWDTTGLYSFSEQTRSLDGRLQVSHRKGLPHVIYCRLWRWPDLHSHHELKAIENCEYAFNLKKDEVCVNPYHYQRVETPVLPPVLVPRHTEILTELPPLDDYTHSIPENTNFPAGIEPQSNYIPETPPPGYISEDGETSDQQLNQSMDTGSPAELSPTTLSPVNHSLDLQPVTYSEPAFWCSIAYYELNQRVGETFHASQPSLTVDGFTDPSNSERFCLGLLSNVNRNATVEMTRRHIGRGVRLYYIGGEVFAECLSDSAIFVQSPNCNQRYGWHPATVCKIPPGCNLKIFNNQEFAALLAQSVNQGFEAVYQLTRMCTIRMSFVKGAGAEYRRQTVTSTPCWIELHLNGPLQWLDKVLTQMGSPSVRCSSMS
modifications: left off: His6, N-terminal, state not stated
B2: Smad2-K420A: K420A mutant of full-length Smad2; predominantly TβRI binding-compromised (protein)
chain: B1 chain with K420A, A422W
modifications: left off: His6, N-terminal, state not stated
B3: Smad2-Y426A: Y426A mutant of full-length Smad2; specific PI(4,5)P2 binding-compromised (protein)
chain: B1 chain with A422W, Y426A
modifications: left off: His6, N-terminal, state not stated
B4: Smad2- R427A/R428A: double mutant of full-length Smad2; PI(4,5)P2 and TβRI binding-compromised (protein)
chain: B1 chain with A422W, R427A, R428A
modifications: left off: His6, N-terminal, state not stated
B5: Smad2-E425K: charge-reversal mutant of full-length Smad2; PI(4,5)P2 and TβRI binding-enhanced (protein)
chain: B1 chain with A422W, E425K
modifications: left off: His6, N-terminal, state not stated
B6: EGFP-Smad2 WT: mouse EGFP-Smad2 wild type transfected into HeLa cells (protein, UniProt Q62432 2-467, looked up)
Mothers against …: SSILPFTPPVVKRLLGWKKSAGGSGGAGGGEQNGQEEKWCEKAVKSLVKKLKKTGRLDELEKAITTQNCNTKCVTIPSTCSEIWGLSTANTVDQWDTTGLYSFSEQTRSLDGRLQVSHRKGLPHVIYCRLWRWPDLHSHHELKAIENCEYAFNLKKDEVCVNPYHYQRVETPVLPPVLVPRHTEILTELPPLDDYTHSIPENTNFPAGIEPQSNYIPETPPPGYISEDGETSDQQLNQSMDTGSPAELSPTTLSPVNHSLDLQPVTYSEPAFWCSIAYYELNQRVGETFHASQPSLTVDGFTDPSNSERFCLGLLSNVNRNATVEMTRRHIGRGVRLYYIGGEVFAECLSDSAIFVQSPNCNQRYGWHPATVCKIPPGCNLKIFNNQEFAALLAQSVNQGFEAVYQLTRMCTIRMSFVKGWGAEYRRQTVTSTPCWIELHLNGPLQWLDKVLTQMGSPSVRCSSMS
modifications: EGFP fusion
notes: mouse EGFP-Smad2 wild type transfected into HeLa cells
B7: Smad2 WT: bacterially expressed full-length Smad2 wild-type (protein)
chain: B1 chain with A422W
modifications: left off: His6, N-terminal, state not stated
notes: bacterially expressed full-length Smad2 wild-type

System: TβRI
Test: Dual color single-molecule tracking, TβRI and EGFP-Smad2
Assay type: cell-based
Conditions: HeLa cells with endogenous Smad2 suppressed, 10 ng/ml TGF-β
Procedure: Figure 4 Quantitative imaging analyses of spatiotemporal dynamics of Smad2.A, TIRF images of mouse EGFP-Smad2-WT transfected into HeLa cells whose endogenous Smad2 is suppressed by siRNA. Images were taken before and 5 min after TGF-β stimulation (10 ng/ml) with and without PI(4,5)P2 depletion. A pseudo-coloring scheme was used with orange and blue representing the highest and the lowest intensity, respectively. B, kinetics of TGF-β stimulated (10 ng/ml) PM localization of EGFP-Smad2-WT (blue), -K420A (green), and -W422A (orange) transfected into HeLa cells the endogenous Smad2 of which was suppressed by siRNA. For EGFP-Smad2-WT, the effect of PI(4,5)P2 depletion (black) and TβRI inhibition by SB-431542 (10 μM for 36 h) (red) were measured. Data points indicate average ±S.D. (n = 10 cells). C, spatially resolved PM PI(4,5)P2 concentration ([PI(4,5)P2]) profiles calculated from two-channel cross-sectional images of HeLa cells (before and 5 min after 10 ng/ml TGF-β stimulation and after PI(4,5)P2 depletion). Each cell is a representative of more than ten cells analyzed. Spatially averaged [PI(4,5)P2] values for each cell type are shown. The z-axis scale indicates [PI(4,5)P2] in mol%. A pseudo-coloring scheme with red and blue representing the highest (1.5 mol%) and the lowest (0 mol%) concentration, respectively, is used to illustrate the spatial [PI(4,5)P2] heterogeneity. Scale bars indicate 10 μm. D, dual color single-molecule tracking of EGFP-PLCδ-PH and SNAP-TMR-labeled TβRI at the PM of HeLa cells. Time courses of the half-life of colocalization for SNAP-TMR-labeled TβRI and EGFP-PLCδ-PH after 10 ng/ml TGF-β stimulation were determined with (orange) and without (blue) PI(4,5)P2 depletion. Data points indicate average ±S.D. (n = 10 cells). E, time courses of the half-life of colocalization for SNAP-TMR-labeled TβRI and EGFP-Smad2 determined by dual color single-molecule tracking analysis. Colocalization of TβRI with EGFP-Smad2-WT (blue), -K420A (green), -W422A (orange), E425K (red), Y426A (cyan), and -R427A/R428A (black) transfected into HeLa cells whose endogenous Smad2 was suppressed by siRNA is shown. For EGFP-Smad2-WT, the effect of PI(4,5)P2 depletion (purple) was measured. Data points indicate average ±S.D. (n = 10 cells). […] TEXT PRINTED IN THE PICTURE: (C) PI(4,5)P2: [PI(4,5)P2] = 1.05 ± 0.20 mol% (HeLa unstimulated); [PI(4,5)P2] = 1.00 ± 0.40 mol% (HeLa 5 min after TGFβ); [PI(4,5)P2] = 0.16 ± 0.08 mol% (HeLa After PI(4,5)P2 depletion) DOUBTS OF THE COPYIST ABOUT THIS PICTURE: Panel C: the printed values are measured membrane concentrations of PI(4,5)P2 in HeLa cells under three conditions, not an activity or property of a compound; it is uncertain whether they count as a result for a substance
Single-molecule imaging was performed using a custom-built total internal reflection fluorescence microscope as described previously. HeLa cells were plated on the 8-well chambered coverglass (Lab-Tek, Thermo Fisher Scientific) at the density of 1 × 10^5 for 24 h, EGFP-Smad2 or mutants and SNAP-tagged TβRI were cotransfected into cells using the jetPRIME system (Polyplus-transfection) according to the manufacturer's protocols. The transfected HeLa cells were serum starved for 16 h and subsequently labeled with SNAP-Cell tetramethylrhodamine (TMR)-Star (New England Biolabs). Labeled cells were washed to remove the free dye, stimulated with 10 ng/ml TGF-β, the two protein molecules were simultaneously tracked and analyzed as described. The images were spatially corrected following the algorithm described previously ([39]). All particle tracking, data analysis, and image processing were carried out with in-house programs written in MATLAB. Colocalization analysis of two molecules was performed with a fixed threshold criterion (i.e., <400 nm) for colocalization ([39]). The same size of PM surface was analyzed for each data. […]

Molecule | dynamic colocalization / dwell time with TβRI after TGF-β stimulation
B1 | much reduced TGFβ-stimulated dynamic colocalization with TβRI
B2 | little response to TGFβ stimulation
B3 | much reduced TGFβ-stimulated dynamic colocalization with TβRI
B4 | low response to TGFβ stimulation
B5 | stronger interaction with TβRI in terms of both amplitude and duration

Same assay, conditions: HeLa cells with endogenous Smad2 suppressed, 10 ng/ml TGF-β, n = 10 cells

Molecule | time of peak colocalization with TMR-SNAP-TβRI after TGF-β stimulation [min]
B6 | 5

System: Smad2 transcriptional activity
Test: Dual luciferase reporter assay for Smad2 transcriptional activity
Assay type: cell-based
Conditions: HeLa cells, PI(4,5)P2 depletion
Procedure: Two separate gels were used to accommodate all mutants. An empty vector transfection (vehicle) was used for a negative control for each gel. Glyceraldehyde 3-phosphate dehydrogenase (GAPDH) was used as a gel loading control. Data in A and B are quantified in Fig. S3A. C, TGF-β stimulated (10 ng/ml for 1 h) nuclear translocation of mouse EGFP-WT, -K420A, -W422A, -E425K, -Y426A, and -R427A/R428A transfected into HeLa cells whose endogenous Smad2 was suppressed by siRNA. For Smad2-WT, the effect of PI(4,5)P2 depletion was measured. Arrows indicate nuclear accumulation of EGFP-WT and EGFP-E425K. Scale bars indicate 10 μm. D, quantification of (C). (Inuc/Icyto) was calculated from total nuclear and cytosolic fluorescence intensity values. Blank and black bars indicate values before and after TGF-β stimulation. Error bars indicate S.D. values from >3 measurements (n = 10). E, Smad2 transcriptional activity measured by the luciferase assay. Blank and black bars indicate values before and after TGF-β stimulation. Error bars indicate S.D. values from >3 measurements (n = 10).
HeLa cells were plated on 6-well plates at the density of ∼1.5 × 10^5 and treated with siRNA as described above. The reporter gene containing three TGF-β/activin response element (ARE) coupled with the luciferase gene (pGL2 3ARE-Lux: Addgene) was used for enhanced activity ([55]). On translocation into the nucleus, receptor-activated Smad2 associates with the DNA-binding protein FAST1 to form a transcriptional complex on the ARE of the Mix.2 promoter. After 24 h, the cell media were replaced with fresh media and cells were cotransfected with 375 ng pGL2 3ARE-Lux experimental vector, 37.5 ng pGL4.73[hRluc/SV40] internal control vector (Promega), 337.5 ng FAST1, and 750 ng of pcDNA 3.1 plasmid harboring Smad2 WT or mutant using the jetPRIME transfection system (Polyplus transfection) according to the manufacturer's protocols. After 24 h of transfection, cells were placed in fresh media and stimulated with 10 ng/ml TGF-β for 48 h. Then the cells were washed with phosphate buffer saline, and the dual luciferase reporter assay was performed according to the manufacturer's protocols (Promega). All 3ARE-Luc activity values were normalized using the pGL4.73[hRluc/SV40] values as a reference.

Molecule | TGF-β-induced Smad2 transcriptional activity after PI(4,5)P2 depletion
B7 | abrogated TGF-β-induced Smad2 transcriptional activity

Same assay, conditions: Smad2-suppressed HeLa cells, luciferase, 10 ng/ml TGF-β for 48 h

Molecule | Smad2 transcriptional activity after TGF-β stimulation
B1 | much reduced activity even after TGF-β stimulation
B7 | fully restored Smad2 transcriptional activity
B2 | much reduced activity even after TGF-β stimulation
B3 | much reduced activity even after TGF-β stimulation
B4 | much reduced activity even after TGF-β stimulation
B5 | higher transcriptional activity than exogeneous Smad2 WT
